{"source": "patent US10442836B2", "about": "“1-(chloromethyl)-2,3-dihydro-1H-benzo[E]indole dimer antibody-drug conjugate compounds, and methods of use and treatment” (priority 2013, dated 2019)", "molecules": {"B1": {"name": "ADC 125: Thio Hu Anti-CD33 15G15.33 HC A118C-MC-MMED-(CBI dimer phos); linker-CBI intermediate 57 (conjugate)", "VH": "QVQLVQSGAEVKKPGSSVKVSCKASGGIFSNHAISWVRQAPGQGLEWMGGIIPIFGTANYAQKFQGRVTITADESTSTAFMELSSLRSEDTAVYYCAREWADVFDIWGQGTMVTVSS", "VL": "EIVLTQSPLSLPVTPGEPASISCRSSQSLLHSNGYNYLDWYLQKPGQSPQLLIYLGVNSVSGVPDRFSGSGSGTDFTLKISRVEAEDVGVYYCMQALQTPWTFGQGTKVEIK"}, "B2": {"name": "ADC 129: Thio Hu Anti-CD33 15G15.33 HC A118C-MC-ED-(CBI dimer DVB phos); linker-CBI intermediate 68 (conjugate)", "VH": "B1 VH", "VL": "B1 VL"}, "B3": {"name": "ADC 127: Thio Hu Anti-CD33 15G15.33 HC A118C-MC-ED-(CBI dimer DVB diphos); linker-CBI intermediate 66 (conjugate)", "VH": "B1 VH", "VL": "B1 VL"}}, "data": [{"test_system": "EOL-1 cells", "experiment": "EOL-1 in vitro cell viability (CellTiter-Glo cell proliferation assay)", "type": "cell-based, human", "conditions": "EOL-1 in vitro cell viability at 3 days versus concentrations (μg/ml)", "source_text": "The CellTiter-Glo® Luminescent Cell Viability Assay is a commercially available (Promega Corp., Madison, Wis.), homogeneous assay method based on the recombinant expression of Coleoptera luciferase (U.S. Pat. Nos. 5,583,024; 5,674,713; 5,700,670). This cell proliferation assay determines the number of viable cells in culture based on quantitation of the ATP present, an indicator of metabolically active cells (Crouch et al (1993) J. Immunol. Meth. 160:81-88; U.S. Pat. No. 6,602,677). The CellTiter-Glo® Assay was conducted in 96 well format, making it amenable to automated high-throughput screening (HTS) (Cree et al (1995) AntiCancer Drugs 6:398-404). The homogeneous assay procedure involves adding the single reagent (CellTiter-Glo® Reagent) directly to cells cultured in serum-supplemented medium. Cell washing, removal of medium and multiple pipetting steps are not required. The system detects as few as 15 cells/well in a 384-well format in 10 minutes after adding reagent and mixing. The cells may be treated continuously with ADC, or they may be treated and separated from ADC.\nThe homogeneous “add-mix-measure” format results in cell lysis and generation of a luminescent signal proportional to the amount of ATP present. The amount of ATP is directly proportional to the number of cells present in culture. […] Viable cells are reflected in relative luminescence units (RLU). […]\nEfficacy of ADC was measured by a cell proliferation assay employing the following protocol ([…] GLO™ Luminescent Cell Viability Assay, Promega Corp. Technical Bulletin TB288; Mendoza et al (2002) Cancer Res. 62:5485-5488): • 1. […] The plate was incubated at room temperature for 10 minutes to stabilize the luminescence signal. • 8. Luminescence was recorded and reported in graphs as RLU=relative luminescence units. • Data are plotted as the mean of luminescence for each set of replicates, with standard deviation error bars. […]", "values": [{"molecule": "B1", "cell-killing activity": "modest dose response cell-killing activity"}, {"molecule": "B2", "cell-killing activity": "potent, dose responsive cell-killing activity"}, {"molecule": "B3", "cell-killing activity": "potent, dose responsive cell-killing activity"}]}, {"test_system": "not given", "experiment": "not given", "conditions": "not given", "values": [{"molecule": "CN(CCN(C)C(=O)Oc1cc2c(c3ccccc13)[C@H](CCl)CN2C(=O)CCCC(=O)N1C[C@@H](CCl)c2c1cc(O)c1ccccc21)C(=O)CBr", "melting point": "167 to 170 °C"}, {"molecule": "CN(CCN(C)C(=O)Oc1cc2c(c3ccccc13)[C@H](CCl)CN2C(=O)CCCC(=O)N1C[C@@H](CCl)c2c1cc(OP(=O)(O)O)c1ccccc21)C(=O)CCCCCN1C(=O)C=CC1=O", "melting point": "191 to 194 °C (dec.)"}, {"molecule": "CN1CCN(C(=O)Oc2cc3c(c4ccccc24)C(CCl)CN3C(=O)/C=C/c2ccc(/C=C/C(=O)N3C[C@@H](CCl)c4c3cc(OC(=O)N3CCN(C)CC3)c3ccccc43)cc2NC(=O)CCNC(=O)CCCCCN2C(=O)C=CC2=O)CC1", "note": "(stereo partly drawn)", "melting point": "268 °C (dec.)"}]}]}
